Two substances from PMC12753717 can be followed below.

For assay [1], the target named is soluble envelope protein ectodomain of yellow fever virus strain 17D with C-terminal 3C site and TwinStrep tag (yellow fever virus strain 17D). The assay is described as follows: SEC-MALS.
The target of assay [2] is soluble envelope protein ectodomain of yellow fever virus strain Asibi with C-terminal 3C site and TwinStrep tag (yellow fever virus strain Asibi). The assay is described as follows: SEC-MALS.

Substance “precursor peptide pr of yellow fever virus strain 17D” had a stoichiometry N in assay [1] of 1.
In assay [2], “precursor peptide pr of yellow fever virus strain Asibi, canonical furin cleavage product (pr1, 9.95 kDa)” came in with a stoichiometry N of 1.
